# Results reported in publication PMC10786891, “Massively parallel profiling of RNA-targeting CRISPR-Cas13d”.
# Changes are numbered by the printed parent chain. Names may count otherwise.
# T1: EsCas13d, nuclease-dead (Eubacterium siraeum, UniProt B0MS50, R295A;H300A;R849A;H854A)
# T1 sequence: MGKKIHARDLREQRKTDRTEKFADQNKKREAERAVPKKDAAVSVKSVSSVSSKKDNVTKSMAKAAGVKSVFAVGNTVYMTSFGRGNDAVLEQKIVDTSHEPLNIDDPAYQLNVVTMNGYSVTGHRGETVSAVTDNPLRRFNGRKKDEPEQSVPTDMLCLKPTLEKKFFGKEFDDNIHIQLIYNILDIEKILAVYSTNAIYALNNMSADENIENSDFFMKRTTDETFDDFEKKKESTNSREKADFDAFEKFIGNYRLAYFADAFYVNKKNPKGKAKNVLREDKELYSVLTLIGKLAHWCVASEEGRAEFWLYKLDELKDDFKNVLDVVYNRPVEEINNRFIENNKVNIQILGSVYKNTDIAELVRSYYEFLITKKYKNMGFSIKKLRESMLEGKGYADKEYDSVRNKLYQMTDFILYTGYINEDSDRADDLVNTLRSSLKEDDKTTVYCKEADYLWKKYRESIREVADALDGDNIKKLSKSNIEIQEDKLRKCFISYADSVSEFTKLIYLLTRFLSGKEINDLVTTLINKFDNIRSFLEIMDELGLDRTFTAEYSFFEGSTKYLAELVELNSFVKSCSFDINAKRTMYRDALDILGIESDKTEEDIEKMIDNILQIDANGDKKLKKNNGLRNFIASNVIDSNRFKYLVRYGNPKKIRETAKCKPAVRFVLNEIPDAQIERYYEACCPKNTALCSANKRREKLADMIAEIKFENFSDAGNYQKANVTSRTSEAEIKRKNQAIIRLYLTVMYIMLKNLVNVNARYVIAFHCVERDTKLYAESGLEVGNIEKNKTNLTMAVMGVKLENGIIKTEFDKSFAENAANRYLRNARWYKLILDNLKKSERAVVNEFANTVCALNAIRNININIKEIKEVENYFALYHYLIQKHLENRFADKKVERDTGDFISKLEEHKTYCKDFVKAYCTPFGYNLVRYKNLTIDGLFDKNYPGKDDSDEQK
# B1: target 1 insU 3' of 18,insG 3' of 16 (mixed)
# RNA 1: CACCCGUGCAAAAAUGCAGGGGUCUAAAACUGAGCGGAUAACCUCUCUAUGG
# RNA 2: GGGAAUGGAUCCACAUCUACGAAUUCGUACCAUAUGAGGAGGUUAUCCGCUCACCGAGAUCGGAAGAGCACACGU
# B2: target 1 MT 5'PFS UCG 3'PFS CAC (mixed)
# RNA 1: B1 RNA 1
# RNA 2: GGGAAUGGAUCCACAUCUACGAAUUCUCGCCAUAGAGAGGUUAUCCGCUCACACAGAUCGGAAGAGCACACGU
# B3: target 1 MT 5'PFS GUA 3'PFS ACA (mixed)
# RNA 1: B1 RNA 1
# RNA 2: B2 RNA 2 with U27G, C28U, G29A, C52A, A53C, C54A
# B4: target 1 MT 5'PFS GAA 3'PFS UUA (mixed)
# RNA 1: B1 RNA 1
# RNA 2: B2 RNA 2 with U27G, C28A, G29A, C52U, A53U, C54A
# B5: target 1 MT 5'PFS GAC 3'PFS CAU (mixed)
# RNA 1: B1 RNA 1
# RNA 2: B2 RNA 2 with U27G, C28A, G29C, C54U
# B6: target 1 MT 5'PFS CCU 3'PFS UCA (mixed)
# RNA 1: B1 RNA 1
# RNA 2: B2 RNA 2 with U27C, G29U, C52U, A53C, C54A
# B7: target 1 MT 5'PFS CAC 3'PFS CAA (mixed)
# RNA 1: B1 RNA 1
# RNA 2: B2 RNA 2 with U27C, C28A, G29C, C54A
# B8: target 1 MT 5'PFS UAA 3'PFS UCU (mixed)
# RNA 1: B1 RNA 1
# RNA 2: B2 RNA 2 with C28A, G29A, C52U, A53C, C54U
# B9: target 1 U3G,G5C (mixed)
# RNA 1: B1 RNA 1
# RNA 2: B2 RNA 2 with U27G, C28U, G29A, G47C, U49G, A53C, C54G
# B10: target 1 MT 5'PFS UAA 3'PFS UCA (mixed)
# RNA 1: B1 RNA 1
# RNA 2: B2 RNA 2 with C28A, G29A, C52U, A53C, C54A
# B11: target 1 MT 5'PFS UCC 3'PFS UGU (mixed)
# RNA 1: B1 RNA 1
# RNA 2: B2 RNA 2 with G29C, C52U, A53G, C54U
# B12: target 1 MT 5'PFS GAC 3'PFS CAC (mixed)
# RNA 1: B1 RNA 1
# RNA 2: B2 RNA 2 with U27G, C28A, G29C
# B13: target 1 MT 5'PFS UAA 3'PFS UCC (mixed)
# RNA 1: B1 RNA 1
# RNA 2: B2 RNA 2 with C28A, G29A, C52U, A53C
# B14: target 1 MT 5'PFS UAG 3'PFS UAA (mixed)
# RNA 1: B1 RNA 1
# RNA 2: B2 RNA 2 with C28A, C52U, C54A
# B15: target 1 MT 5'PFS UCG 3'PFS CAA (mixed)
# RNA 1: B1 RNA 1
# RNA 2: B2 RNA 2 with C54A
# B16: target 1 MT 5'PFS GAA 3'PFS UUC (mixed)
# RNA 1: B1 RNA 1
# RNA 2: B2 RNA 2 with U27G, C28A, G29A, C52U, A53U
# B17: target 1 MT 5'PFS UCG 3'PFS CAU (mixed)
# RNA 1: B1 RNA 1
# RNA 2: B2 RNA 2 with C54U
# B18: target 1 MT 5'PFS GUA 3'PFS ACU (mixed)
# RNA 1: B1 RNA 1
# RNA 2: B2 RNA 2 with U27G, C28U, G29A, C52A, A53C, C54U
# B19: target 1 MT 5'PFS GAC 3'PFS ACA (mixed)
# RNA 1: B1 RNA 1
# RNA 2: B2 RNA 2 with U27G, C28A, G29C, C52A, A53C, C54A
# B20: target 1 MT 5'PFS GUA 3'PFS ACC (mixed)
# RNA 1: B1 RNA 1
# RNA 2: B2 RNA 2 with U27G, C28U, G29A, C52A, A53C
# B21: target 1 MT 5'PFS ACA 3'PFS UCG (mixed)
# RNA 1: B1 RNA 1
# RNA 2: B2 RNA 2 with U27A, G29A, C52U, A53C, C54G
# B22: target 1 MT 5'PFS GAC 3'PFS ACC (mixed)
# RNA 1: B1 RNA 1
# RNA 2: B2 RNA 2 with U27G, C28A, G29C, C52A, A53C
# B23: target 1 MT 5'PFS GAA 3'PFS UUG (mixed)
# RNA 1: B1 RNA 1
# RNA 2: B2 RNA 2 with U27G, C28A, G29A, C52U, A53U, C54G
# B24: target 1 MT 5'PFS UCC 3'PFS AAA (mixed)
# RNA 1: B1 RNA 1
# RNA 2: B2 RNA 2 with G29C, C52A, C54A
# B25: target 1 MT 5'PFS GAC 3'PFS ACG (mixed)
# RNA 1: B1 RNA 1
# RNA 2: B2 RNA 2 with U27G, C28A, G29C, C52A, A53C, C54G
# B26: target 1 A18C,C22A (mixed)
# RNA 1: B1 RNA 1
# RNA 2: B2 RNA 2 with U27G, C28U, G29A, C30A, A34C, A53C, C54G
# B27: target 1 MT 5'PFS GAC 3'PFS ACU (mixed)
# RNA 1: B1 RNA 1
# RNA 2: B2 RNA 2 with U27G, C28A, G29C, C52A, A53C, C54U
# B28: target 1 MT 5'PFS GAA 3'PFS UUU (mixed)
# RNA 1: B1 RNA 1
# RNA 2: B2 RNA 2 with U27G, C28A, G29A, C52U, A53U, C54U
# B29: target 1 MT 5'PFS ACC 3'PFS UUG (mixed)
# RNA 1: B1 RNA 1
# RNA 2: B2 RNA 2 with U27A, G29C, C52U, A53U, C54G
# B30: target 1 MT 5'PFS UGU 3'PFS CCG (mixed)
# RNA 1: B1 RNA 1
# RNA 2: B2 RNA 2 with C28G, G29U, A53C, C54G
# B31: target 1 MT 5'PFS UCC 3'PFS UGC (mixed)
# RNA 1: B1 RNA 1
# RNA 2: B2 RNA 2 with G29C, C52U, A53G
# B32: target 1 MT 5'PFS ACA 3'PFS UCU (mixed)
# RNA 1: B1 RNA 1
# RNA 2: B2 RNA 2 with U27A, G29A, C52U, A53C, C54U
# B33: target 1 MT 5'PFS GUA 3'PFS ACG (mixed)
# RNA 1: B1 RNA 1
# RNA 2: B2 RNA 2 with U27G, C28U, G29A, C52A, A53C, C54G
# B34: target 1 MT 5'PFS GAC 3'PFS CAA (mixed)
# RNA 1: B1 RNA 1
# RNA 2: B2 RNA 2 with U27G, C28A, G29C, C54A
# B35: target 1 MT 5'PFS CUC 3'PFS UGC (mixed)
# RNA 1: B1 RNA 1
# RNA 2: B2 RNA 2 with U27C, C28U, G29C, C52U, A53G
# B36: target 1 MT 5'PFS UCC 3'PFS UGA (mixed)
# RNA 1: B1 RNA 1
# RNA 2: B2 RNA 2 with G29C, C52U, A53G, C54A
# B37: target 1 MT 5'PFS AAA 3'PFS UAG (mixed)
# RNA 1: B1 RNA 1
# RNA 2: B2 RNA 2 with U27A, C28A, G29A, C52U, C54G
# B38: target 1 MT 5'PFS CUU 3'PFS AGU (mixed)
# RNA 1: B1 RNA 1
# RNA 2: B2 RNA 2 with U27C, C28U, G29U, C52A, A53G, C54U
# B39: target 1 insU 3' of 17,insA 3' of 5 (mixed)
# RNA 1: B1 RNA 1
# RNA 2: GGGAAUGGAUCCACAUCUACGAAUUCGUACCAUAGUAGAGGUUAUCCGACUCACCGAGAUCGGAAGAGCACACGU
# B40: target 1 MT 5'PFS UGG 3'PFS CCG (mixed)
# RNA 1: B1 RNA 1
# RNA 2: B2 RNA 2 with C28G, A53C, C54G
# Target: T1, EsCas13d, nuclease-dead
# Assay: crRNA (strand 1, pre-loaded); Mg2+; 40 mM Tris-HCl pH 7.5, 150 mM NaCl, 6 mM MgCl2, 1 mM DTT, 0.1% Tween-20, 0.2 mg/ml BSA; 25 C; 10 min per concentration, then washed
# Conditions: tags: His6-TwinStrep-SUMO cleaved; N-terminal SNAP kept (SNAP-Surface 488); label: 3' end held by stalled T7 RNA polymerase
row,Binder,Kd [nM]
1,B1,73 ± 31
2,B2,~43.5
3,B3,17.6 ± 1.45
4,B4,16 ± 2.15
5,B5,21.5 ± 8
6,B6,26.5 ± 10.5
7,B7,12 ± 6
8,B8,44.5 ± 15
9,B9,16.7 ± 1.1
10,B10,32 ± 9.5
11,B11,~70
12,B12,61 ± 21.5
13,B13,82.5 ± 27.5
14,B14,21.4 ± 4.8
15,B15,~44
16,B16,51 ± 21
17,B17,~80
18,B18,10.6 ± 0.75
19,B19,~46
20,B20,7.95 ± 0.8

row,Binder,Kd [nM]
1,B21,7.7 ± 1.55
2,B22,75.5 ± 37.5
3,B23,12.8 ± 2.6
4,B24,~23.5
5,B25,16.7 ± 3.95
6,B26,67 ± 13
7,B27,14 ± 5
8,B28,15.3 ± 2.75
9,B29,7.35 ± 3.35
10,B30,34.5 ± 13.5
11,B31,~12.5
12,B32,7.4 ± 2.8
13,B33,11 ± 0.92
14,B34,25.5 ± 8.5
15,B35,~60
16,B36,~29
17,B37,12.9 ± 2.25
18,B38,48 ± 12.5
19,B39,19 ± 4
20,B40,47 ± 9.5
